Test: yeast display, Sf9 membrane polyspecificity reagent, FACS + sequencing; frameworks hold sequencing errors
Outline: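 Sorting gates, low and high (top ~1%), were placed on anti-HA fluorescence to track expression and on streptavidin fluorescence to track reagent binding. A clone's polyreactivity label is taken from the gate it came out of. The reagent was 10% biotinylated, detergent-solubilized Sf9 membrane, applied for 1 hour at 4 °C to galactose-induced yeast display cells.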

Question: For “QVQIVESRGGLVQAGGSLRLSCDASGRTILIYAMGWYRQAPRKERELVAAITSGGRTKYADSVKGRFTISRDNGKNTVFLQMNSQKPEDTAVYYCAAESNRLRYYYWGQGSQVTVSS”, which “polyreactivity (PSR sort gate)” value is on record?
Answer: high polyreactivity

Question: Which “polyreactivity (PSR sort gate)” value does the source give for “QVQIVETGGGLVQAGGSLRLSCAASGFIFSNYARGRYRQAPGKERELVAAISWSGGRTYYADSVKGRFTISRDNAKNSVYLQMNSLKPEDTAVYYCATRYGSASGREYEYWGQGTQVTVSS” here?
Answer: high polyreactivity

Question: For “QVQIVHSGGGLVQAGGSLRLSCAASGRTIGGNAMGWYRQAPGKEWELVAAISYSDGSTYYADSVKGRFTISRDNAKNTVYLQMNSLKPEDTAVYYCAADRYAILLYAEDYWGQGTQVTVSS”, which “polyreactivity (PSR sort gate)” value is on record?
Answer: low polyreactivity

Question: For “QVQIVQSGGGLVQAGGSLRLSCAASGSTITYNAMGWYRQAPGKERELVAAITVSDGSTYYADSVKGRFTISRDNAKNTVYLQMNSLKPEDTAVYYCNAYAVYLRYLWYDFWGQGTQVTVSS”, which “polyreactivity (PSR sort gate)” value is on record?
Answer: low polyreactivity

Question: With “QVQLAESGGCLVQAGGSLRLSCAASGIIFYFYAMGWYRPAPGKERELVAAISGTGGRTYYADSVKGRFTISRDNAKNTVSLQMNSLKPDDTAVYYCNADDTPVPSIRFDYWGQGTQVTVSS” as the sequence, how does the “polyreactivity (PSR sort gate)” value read?
Answer: low polyreactivity

Question: Which “polyreactivity (PSR sort gate)” value does the source give for “QVQLAESGGGLVQAGGSLRLSCAASGRIFAFYAMGWYRQAPGKERELVAIISSAGRPYYADSVKGRFTISRDNAKYTVYLQMNSLKREDTAVYYCAAGGRARTYYYWGQGTQVTVSS” here?
Answer: high polyreactivity

Question: For “QVQLAESGGGLVQAGGSLRLSCAASGRIFARNAMGWYRQAPGKERELVAAISWSGGRTYYADSVKGRFTISRDNAKNTVYLQMNSLKPEDTAVYYCAADHYPWWAWEFDYWGQGTQVTVSS”, which “polyreactivity (PSR sort gate)” value is on record?
Answer: low polyreactivity

Question: With “QVQLAESGGGLVQAGGSLRLSCAPSGSTFEINAMGWYRQAPGKETELVAAISRGGSTNYADSVKGRFSISRDNAKNTVYLQMNSLKPEDSAVYDCARDPRFRYYRVSYANDQEFEYSGQGTQVTVSS” as the sequence, how does the “polyreactivity (PSR sort gate)” value read?
Answer: high polyreactivity

Question: With “QVQLAESGGGLVQAGGSLRLSSAASGRTIGFNGMGWYRQAPGKERELVAAITWNGDSTYADSVKGRFTISRDNAKNTVYLQMNSLKPDDTAVYYCGAEVVAQMNYWGQGTQVTVSS” as the sequence, how does the “polyreactivity (PSR sort gate)” value read?
Answer: low polyreactivity

Question: With “QVQLEDAGGGLVQAGGSLRLSCAASGRIIGWYTIGRYRQAPGKERELVATSSSSGASTYYADSVKGRFTISRDNAKNSVYFQMNSLKPEDTGVYYCAAQYYPYSFAHRYGYWGQGSQVTVSS” as the sequence, how does the “polyreactivity (PSR sort gate)” value read?
Answer: high polyreactivity

Question: For “QVQLEDSGGGLDQAGGSLRLSCAASGITFIRYAMVWYRQAPGKERELVAAIPTSGSSKFYADSVKGRFTISRDNAKNTVYLQMNSLKPEDTAVYYCAAVFRWARLYTFYGSKVDYWGQGTQVTVSS”, which “polyreactivity (PSR sort gate)” value is on record?
Answer: high polyreactivity

Question: Which “polyreactivity (PSR sort gate)” value does the source give for “QVQLEDSGGGLVQAGGRLRLSCAASGSIFFSYAMGWYRQAPGTERELVAGINWSGGSTYADCVKGRFTISRDNAKNTVYLQMNSQKPEDTAVYYCAAKYYSERSRYHYWGLGTQVTVSS” here?
Answer: low polyreactivity

Question: With “QVQLEDSGGGLVQAGGSLPLSCAASGGTFTDYAMGWYRQAPGKERELVAAISSVGSTNYADSVKGRFTISRDNAKNTVYLQMNSLKPEDTAVYYCAVDYGRAVQVDSITYDFNYWGQGTQVNVSS” as the sequence, how does the “polyreactivity (PSR sort gate)” value read?
Answer: low polyreactivity

Question: For “QVQLEDSGGGLVQAGGSLRLSCAASGSTFLYYARGWYRQAPGKERELVAAITSGGSTYYADSVKGRFTISRDNAKNTVYLQMNSLKPEDTAVYYCAAASRRGYYYWGQGTQVTVSS”, which “polyreactivity (PSR sort gate)” value is on record?
Answer: high polyreactivity

Question: With “QVQLEDSGGGLVQAGGTLRLRCAASGITFGTNDMGWYRKAPGKETELVAAIDGSGETYYADSVKGRFTISRDNAKNTVYLLMNSLKPVDTAVYYCAADVIYWFSGEYDYWGQGTQVIVSS” as the sequence, how does the “polyreactivity (PSR sort gate)” value read?
Answer: low polyreactivity

Question: With “QVQLEDSGRGLFQAGGSLRLSCAASGSIVALYTMGWYRQAPGKEREFVAGIRTGGSTIYADSVKGRFTISRDNAKNTVYLQMNSRKPEDTPVYYDDWGQGTQVTVSS” as the sequence, how does the “polyreactivity (PSR sort gate)” value read?
Answer: low polyreactivity

Question: With “QVQLEESAGGIVQAGGSLRFSCAASGSTISAYDIGCYRQEPGKEWELVAAITWIGGNTYYADSVKGRFTISRDTAKNTVYLQMNSLKPEDTEFYYCAAEEVPYDRDMDYWGQGTQVTVSS” as the sequence, how does the “polyreactivity (PSR sort gate)” value read?
Answer: low polyreactivity

Question: With “QVQLEESAGRLVQAGGSLRLSCAASGFIISPYAMGWYRQAPGKERELVAAISWSGVYTYYADTVKGRFTISRDNAKNTVYLQMNSLKPEDSAVYYCATYGTVYYWGQGTQVTVST” as the sequence, how does the “polyreactivity (PSR sort gate)” value read?
Answer: high polyreactivity

Question: Which “polyreactivity (PSR sort gate)” value does the source give for “QVQLEESAGRLVQAGGSLRLSCAASGYTFGYYAMGWYRQAPGKERQLVAAISWRGARTNYADSVKGRFTISRDNAKNTVYLQMNSLKPEDTAVYYCAAGYYYGYPPRDYWGQGTQVTVSS” here?
Answer: high polyreactivity

Question: Which “polyreactivity (PSR sort gate)” value does the source give for “QVQLEESAGRLVQARGSLRLSCAASGSTFGYNAMGWDSQAPGKARELVAALTRRGGRTYYADSVKGRFTISRDNAKNTVYLQMNSLKPEDTAVYYCAATSRGSGQRPGEAIIDYYYWGQGTQVTVSW” here?
Answer: high polyreactivity

Question: Which “polyreactivity (PSR sort gate)” value does the source give for “QVQLEESCGGLVQAGGSHRLSCAASGSTIYNNAMGWYRQAPRKERELVAAISSGGGITYYADSVKGRFTISRDNAKNSVYLQMNSLKPEDTAVYYCNARRIYLGYNYWGQGTQVTVSS” here?
Answer: high polyreactivity

Question: For “QVQLEESCGGLVQAGGSLRLSCAASGPIIRAYAMGWYRQAPGKERELVAAITRSGGSTYYADSVKGRFTISLDNAKNTVYLQMNSLKPEDTAVYYCNARTRYDDGYDSWGQGTQVTVSS”, which “polyreactivity (PSR sort gate)” value is on record?
Answer: high polyreactivity

Question: For “QVQLEESGAGLVQAGGSLRLSCAASGRTFWFYTMGLYRQAPGKERELVAAISSAGSTNYADSVKGRFTISRDNAKNTVYLQMNSLKPEDTAVYYCNARFPVGPSEDAVWYYPKYDYWGQGTQVTVSS”, which “polyreactivity (PSR sort gate)” value is on record?
Answer: low polyreactivity

Question: For “QVQLEESGAGLVQAGGSLRLSCAASGSIFNLYAMGWYRQAPGKEMELVAAINWSGGSTYYADSVKGRFTISRDNAKNTVYLQMNSLKPEDTAVYYCAADAYSTYYGYEGDYWGQGTQVTVSS”, which “polyreactivity (PSR sort gate)” value is on record?
Answer: low polyreactivity

Question: Which “polyreactivity (PSR sort gate)” value does the source give for “QVQLEESGAGLVQAGGSLRLSCAASVFTFCCTTMGRSRPAPGKESELVATISRTGGITYYADSVKGRFTISRDNAKNTVNLQMNSLKPEDTAVYYCILRYYWGQVTQVTVSS” here?
Answer: high polyreactivity

Question: Which “polyreactivity (PSR sort gate)” value does the source give for “QVQLEESGAGLVQAGGSLRLTCAASGSTFYSNVMGWYRQAPGKEREFVAGISGSGGSTYYADSVKGRFTISRDNGNISVYLLINSLKPEDPAVYYCKAVRYPRLLYYWGQGTQVNVSS” here?
Answer: high polyreactivity

Question: With “QVQLEESGGCLVQAGGSLRLSCAASGFTFRSYAMGWYRQAPGKERELVAAISSGGSTYYADSVKGRFTISRDNAKITVYLKMNSLKPEDTAVYYCAARRYYGYGHWGQGTHVTVSS” as the sequence, how does the “polyreactivity (PSR sort gate)” value read?
Answer: high polyreactivity

Question: Which “polyreactivity (PSR sort gate)” value does the source give for “QVQLEESGGCLVQAGGSLRLSCAASGSTFVYNVMGWYRQAPGKERELVAAITSGVRTYYADSVKGRFTISRDNAKNTVYLQMNSLKPEDTAGYYCATGWRYAKYYYWGQGTQVTVSS” here?
Answer: high polyreactivity

Question: Which “polyreactivity (PSR sort gate)” value does the source give for “QVQLEESGGGIVQAGGSLRLSCAASGRIFRIYAMGWYRKAPGKERELVARITYSGGSTYYADSVKGRFTISRDKAKNTVYLQMNSLKPEDTAVFYCAADWLFYQYGYWGQGTQVTVSS” here?
Answer: low polyreactivity

Question: With “QVQLEESGGGLCQAGGSLRLSCAPSGSIFVSNAMVCYRQAPGKERELVAAITYNGGRTFYADSVKGRFTISRDNAKNTVYLQLNSLKPEDTAVYYFAADGSWHGYGYWGQGTQVTVSS” as the sequence, how does the “polyreactivity (PSR sort gate)” value read?
Answer: low polyreactivity

Question: For “QVQLEESGGGLDQAGGSLRLSCAASGSIFYYYAMGWYRQAPGKERELVAVIDFSGASTSYAVSVKGRFTISRDNAKITVYLQMNSLKPEDTAVYYCAADRRSKYDYWGQGTQVTVSS”, which “polyreactivity (PSR sort gate)” value is on record?
Answer: low polyreactivity

Question: Which “polyreactivity (PSR sort gate)” value does the source give for “QVQLEESGGGLVQAGGRLRLSCAASGRTFSTYAMGWYRQATGKERELVAAITRRGGSTSYADSVKGRFTISRDNANNTVYLQMNSLNPEDTAVYYCARENPGDSYYDYWGQGTQVTVSS” here?
Answer: low polyreactivity

Question: With “QVQLEESGGGLVQAGGRLRLSCAASGSTFVRSVMGSYRAAPGKERELVAAISEGGGSTYYADSVKGRFTISRDNAKNTVYLQMNSLKPEDTAVYYCAAEGYFRYWYGTIQYDYWGQGTQVTVSS” as the sequence, how does the “polyreactivity (PSR sort gate)” value read?
Answer: high polyreactivity

Question: Which “polyreactivity (PSR sort gate)” value does the source give for “QVQLEESGGGLVQAGGSHRLSCAASGFTFIDNAMGSYRQAPGKERELVAAISISGGRTYYADSVKGRFTISRDNAKNTVYLQMNSLKPEDTAVYYCAAGKHRRDDYWGQGTQVTVSS” here?
Answer: high polyreactivity

Question: For “QVQLEESGGGLVQAGGSIRLSCAASGRTIVYNAMGWYRQAPGNERELVDAIDGGGDRTYYADSVKGRFTISRDNAKITVYLQMNRLKPEDTAVYYCARDPGDTYYYSYPEGDYWGQGTQVSVSS”, which “polyreactivity (PSR sort gate)” value is on record?
Answer: low polyreactivity

Question: Which “polyreactivity (PSR sort gate)” value does the source give for “QVQLEESGGGLVQAGGSLRFSFAASGSIFRYYAMGWYRQAPGKERELVANISRGCSTYYADSVKGRFTISRDNAKKTVYLQMNSLKPDDTAVYYCAADISERYDYWGQGTQVTVSS” here?
Answer: high polyreactivity

Question: With “QVQLEESGGGLVQAGGSLRISCAASVRILSWYAIGWYRQAPGKERELVAAISVRGSTYYADSVKGRFTISRDNAKNTVYLQMNSLKPDDTAVYYSNRVWLQASTTIVVSSRRLYYWGLGTQVTVSS” as the sequence, how does the “polyreactivity (PSR sort gate)” value read?
Answer: high polyreactivity

Question: With “QVQLEESGGGLVQAGGSLRLSCAASGFIFDYYAMGWYRQAPGKERELVAAISSSGGSTYADSVKGRFTISRDNAKNTVYLQMNSLKPEDTAVYYCAADWYKRPPYDYWGQGTQVTVSS” as the sequence, how does the “polyreactivity (PSR sort gate)” value read?
Answer: low polyreactivity

Question: Which “polyreactivity (PSR sort gate)” value does the source give for “QVQLEESGGGLVQAGGSLRLSCAASGFIFGLNAMGWYRQAPGKERELVAGIRSGSSTNYADSVKGRFTISRDNAKNTVYLQMNSLKPEDTAVYYCATEGYWVYGFDDEYWGQGTQVTVSS” here?
Answer: low polyreactivity

Question: With “QVQLEESGGGLVQAGGSLRLSCAASGFIFGRNAMGWYRQAPGKERELVAAITRSGGSTYYADSVKGRFTISRDNAKNTVYLQMNSLKPEDTAVYYCAKGVFTWGVFRVGIRDDYWGQGTQVTVSS” as the sequence, how does the “polyreactivity (PSR sort gate)” value read?
Answer: high polyreactivity

Question: With “QVQLEESGGGLVQAGGSLRLSCAASGFTFNKYAMGWYRQAPGKERELVDAISSSGGSTRYADSVKGRFKISRDNAKNTVYLQMNSLKPEDSAVYYCAVYVTRDSGWWLYDYWGQGTQVTVAS” as the sequence, how does the “polyreactivity (PSR sort gate)” value read?
Answer: high polyreactivity

Question: Which “polyreactivity (PSR sort gate)” value does the source give for “QVQLEESGGGLVQAGGSLRLSCAASGFTFRYYAMGWYRQAPGKERELVASISSSGGSTNYADSVKGRFTISRDNAKNTVYLQMNSLKPEDTAVYYCAVPPYTWLYDYWGQGTQVTVSS” here?
Answer: high polyreactivity

Question: For “QVQLEESGGGLVQAGGSLRLSCAASGFTFSYYAMGWYRQATGKERELVAAITSSAGSTYYADSVKGRFTISRDYAKNSFYLQMTSLKPEDTEVYYCYAVYSKLNGGYDYWGQGTQVTVSS”, which “polyreactivity (PSR sort gate)” value is on record?
Answer: low polyreactivity

Reference: the nanobody polyreactivity screen of Harvey et al. (2022)
